Assay results taken from publication PMC10881965, “Structural optimization of siRNA conjugates for albumin binding achieves effective MCL1-directed cancer therapy”.

B1: si<(EG18L)2 (dsRNA)
RNA 1: CAAUUGCACUGAUAAUGAA
RNA 2: UUCAUUAUCAGUGCAAUUG
modifications: 2'-F/2'-OMe, PS; 5' sense divalent stearyl, 18 EG per arm, proximal branch
B2: si<(EG30L)2 (dsRNA)
RNA 1: CAAUUGCACUGAUAAUGAA
RNA 2: UUCAUUAUCAGUGCAAUUG
modifications: 2'-F/2'-OMe, PS; 5' sense divalent stearyl, 30 EG per arm

Molecular target: human serum albumin (Homo sapiens, UniProt P02768 25-609)
Experiment: BLI; EMSA: 0.1 nmol siRNA conjugate, 5x molar excess albumin, 30 min at 37 C, 4-20% TGX gel; BLI: albumin 400 nM (or varied), buffer not in material

Sequence of human serum albumin (P02768 25-609): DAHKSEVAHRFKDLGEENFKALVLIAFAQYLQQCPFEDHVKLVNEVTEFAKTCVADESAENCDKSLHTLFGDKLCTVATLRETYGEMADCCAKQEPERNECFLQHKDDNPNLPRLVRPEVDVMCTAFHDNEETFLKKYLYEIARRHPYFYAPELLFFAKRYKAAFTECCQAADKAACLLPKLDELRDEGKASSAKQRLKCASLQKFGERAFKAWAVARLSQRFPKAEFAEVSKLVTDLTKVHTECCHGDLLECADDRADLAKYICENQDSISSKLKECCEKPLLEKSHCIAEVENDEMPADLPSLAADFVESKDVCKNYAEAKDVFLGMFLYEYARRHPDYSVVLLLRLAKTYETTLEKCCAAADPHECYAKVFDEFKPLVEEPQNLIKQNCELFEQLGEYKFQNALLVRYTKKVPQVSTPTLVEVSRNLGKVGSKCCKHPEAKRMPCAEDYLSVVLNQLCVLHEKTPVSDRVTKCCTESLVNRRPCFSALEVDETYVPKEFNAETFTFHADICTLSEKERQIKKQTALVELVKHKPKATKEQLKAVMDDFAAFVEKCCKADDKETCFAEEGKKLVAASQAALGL

| Binder | Kd [nM] |
| --- | --- |
| B1 | 30 ± 0.3 |
| B2 | 9.49 ± 0.1 |
